Target: purified recombinant 6x His-PCNA
Sequence (chain, as listed by the source): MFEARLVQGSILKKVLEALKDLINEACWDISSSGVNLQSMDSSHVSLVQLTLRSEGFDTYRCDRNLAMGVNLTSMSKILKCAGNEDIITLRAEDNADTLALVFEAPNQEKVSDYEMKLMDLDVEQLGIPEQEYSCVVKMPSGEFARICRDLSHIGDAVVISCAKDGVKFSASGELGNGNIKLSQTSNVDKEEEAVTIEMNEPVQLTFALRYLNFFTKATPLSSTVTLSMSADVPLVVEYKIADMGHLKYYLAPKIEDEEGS

B1: Flag-tagged C6orf211 protein fusion (Flag-Arm1) (protein)
chain: MAVVPASLSGQDVGSFAYLTIKDRIPQILTKVIDTLHRHKSEFFEKHGEEGVEAEKKAISLLSKLRNELQTDKPFIPLVEKFVDTDIWNQYLEYQQSLLNESDGKSRWFYSPWLLVECYMYRRIHEAIIQSPPIDYFDVFKESKEQNFYGSQESIIALCTHLQQLIRTIEDLDENQLKDEFFKLLQISLWGNKCDLSLSGGESSSQNTNVLNSLEDLKPFILLNDMEHLWSLLSNCKKTREKASATRVYIVLDNSGFELVTDLILADFLLSSELATEVHFYGKTIPWFVSDTTIHDFNWLIEQVKHSNHKWMSKCGADWEEYIKMGKWVYHNHIFWTLPHEYCAMPQVAPDLYAELQKAHLILFKGDLNYRKLTGDRKWEFSVPFHQALNGFHPAPLCTIRTLKAEIQVGLQPGQGEQLLASEPSWWTTGKYGIFQYDGPL
PCNA-dependent carboxyl methyltransferase activity (vapor diffusion assay): Significant levels of PCNA-dependent carboxyl methyltransferase activity was detected in the anti-Flag Flag-Arm1 expressing extracts, and this activity was not present in the immunoprecipitates from control extracts

Reference: patent US20120258482
